These results are taken from patent US8313731B2 (priority 2002, dated 2012).

The assay deals with HeLa cells. The format is cell-based, Human.

B1: Holo-neocarzinostatin (protein, UniProt P0A3R9 35-147, looked up)
Neocarzinostatin: AAPTATVTPSSGLSDGTVVKVAGAGLQAGTAYDVGQCAWVDTGVLACNPADFSSVTADANGSASTSLTVRRSFEGFLFDGTRWGTVDCTTAACQVGLSDAAGNGPEGVAISFN
modifications: enediyne chromophore bound
With B1, the cell survival is no less than 90%. Also, the “incubation time within which full cytotoxic effect develops” value (37° C.) is on record as no more than 6 min. Also, the IC50 (read-out: concentration of drug that kills 50% of the cell population) worked out at 0.71 ± 0.05 nM.
